Laboratory results published in the supplement of paper PMC10724198.
± gives the standard deviation of the averaged measurements.

Tested on: Saccharomyces cerevisiae
Test: protein stability index of tFT-peptide fusion (C-terminal peptide) (PSI (0-1 scale)); higher = more stable (slower turnover)
Conditions: genetic background: wild type; temperature: 30 C
Experimental: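 Multiplexed protein stability (MPS) profiling in S. cerevisiae. Random 12-aa peptides (tFT-X12 library) are fused to the C-terminus of a sfGFP-mCherry tandem fluorescent timer, after mCherry and a GGGS linker. Cells are FACS-sorted into 8 mCherry/sfGFP bins and deep-sequenced. The protein stability index (PSI) is the read-weighted bin average, scaled from 0 (unstable) to 1 (stable). Only peptides with >10 reads are reported; cells were grown at 30 °C in SC-His with glucose.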
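Also: PSI is a weighted mean of sequencing reads over stability bins, variants kept only with over 10 reads, mCherry proximal and sfGFP distal, peptide attached via GGGS linker.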

Sequence | protein stability index
EVVRWGCVDLWI | 0.717 ± 0.051
EWACGRAGLKVV | 0.491 ± 0.018
EYCIYYTQFGSF | 0.65 ± 0.1
EYEDNRLDQHKV | 0.725 ± 0.04
FAFVCLASILGS | 0.5313 ± 0.0017
FAPAWQTRLGCP | 0.7514 ± 0.0026
FAPPASPPARPP | 0.672 ± 0.016
FAVLGGGVGGGW | 0.7077 ± 0.0032
FCALWASFFGVS | 0.715 ± 0.048
FCCFGGSFFSLR | 0.715 ± 0.02
FCCSYLSRGDFL | 0.702 ± 0.023
FCDFSPPARSFP | 0.76 ± 0.072
FCGDFGGAYGLW | 0.706 ± 0.047
FCGFTSLCVGDL | 0.731 ± 0.039
FCLGMRKHSSPL | 0.731 ± 0.02
FCVFFSGLCCWV | 0.55 ± 0.022
FCWCARPLSWYN | 0.615 ± 0.027
FDACPAPFGLVV | 0.67033 ± 0.0004
FDRAVRPSCLLL | 0.6892 ± 0.0062
FEDWMQGLGKWV | 0.792 ± 0.054
FELTLLSPVCFS | 0.579 ± 0.0089
FESTCSGLLYNS | 0.694 ± 0.039
FFAGASRFSSWS | 0.752 ± 0.029
FFCLWFLSFLRF | 0.572 ± 0.01
FFFLPILKSPSR | 0.714 ± 0.058

Sequence | protein stability index
FFGNGSGPWVLV | 0.6597 ± 0.0018
FFGWYFCFSGVS | 0.598 ± 0.023
FFIGFGGVAGGG | 0.695 ± 0.01
FFLGGGVGLVLV | 0.528 ± 0.053
FFLPLAYSSGSN | 0.659 ± 0.043
FFLPSLFSVLSF | 0.53 ± 0.04
FFLRLCTPPYFH | 0.651 ± 0.0097
FFPITAWSGWDG | 0.669 ± 0.093
FFPPAPLTSLLP | 0.697 ± 0.057
FFPPFLFSLFRT | 0.5621 ± 0.0007
FFQSSLLFCPWR | 0.712 ± 0.011
FFRWDSKHDILV | 0.732 ± 0.064
FFRYWLRWGWGV | 0.695 ± 0.039
FFSFVVPCFFFC | 0.513 ± 0.022
FFSSSLMRLGCF | 0.6343 ± 0.00098
FFSWFGCSCYAR | 0.779 ± 0.023
FFTVRLRGGRDC | 0.649 ± 0.024
FFVGAGATEGLG | 0.735 ± 0.021
FFVGAGVTEGLG | 0.692 ± 0.033
FGFGYAVSFLVG | 0.6 ± 0.081
FGPDFCVRSHLS | 0.719 ± 0.03
FGRGLCPHRLWI | 0.74 ± 0.039
FGRSHPFWVVDV | 0.697 ± 0.025
FGSRTFVTIAAG | 0.57 ± 0.056
FGVSLWPGFLYL | 0.587 ± 0.0065

Sequence | protein stability index
FGVTLGYFSSVE | 0.656 ± 0.017
FGVVLAGAGWGG | 0.675 ± 0.095
FGVVLVGAGWGG | 0.67 ± 0.035
FGWVGYGCGVWW | 0.741 ± 0.12
FHFLNLLIPFPR | 0.737 ± 0.061
FHVVPLTSPPPV | 0.755 ± 0.03
FHYSRSCVLEQL | 0.698 ± 0.074
FICAGPLGVCSC | 0.498 ± 0.011
FICGFRYHTVYR | 0.652 ± 0.043
FIKRINSYTGWI | 0.663 ± 0.062
FIQFGYVSSVIQ | 0.722 ± 0.031
FISKHHPLVPPS | 0.719 ± 0.041
FKQLKKKKKNRR | 0.741 ± 0.091
FLARPIACPRRV | 0.701 ± 0.008
FLCNSRSICGDG | 0.6774 ± 0.0033
FLCRLILFSTPP | 0.602 ± 0.021
FLFASYFLENQR | 0.766 ± 0.13
FLFRLWGLLAEG | 0.583 ± 0.082
FLGCFIPLPCTP | 0.645 ± 0.012
FLGFPVVGVFGS | 0.735 ± 0.031
FLGRFLTGALWV | 0.758 ± 0.12
FLLCFLRIPSCP | 0.5218 ± 0.0042
FLLCISGFSSFL | 0.592 ± 0.0077
FLLDRSSADHSL | 0.684 ± 0.1
FLLFSSFYFCFP | 0.497 ± 0.062

Sequence | protein stability index
FLLPPAPRPAPP | 0.76 ± 0.086
FLPFFFCLPSSL | 0.628 ± 0.014
FLPRLSASSSLC | 0.728 ± 0.015
FLQRSLTNMNSL | 0.671 ± 0.00095
FLRGLCGKMSKG | 0.673 ± 0.0081
FLRKHVLRLRPP | 0.594 ± 0.03
FLSCLLERSWSL | 0.79 ± 0.044
FLSLFCFFLPFF | 0.646 ± 0.02
FLSPSLLSLSSP | 0.681 ± 0.025
FLSSWFCYSSDL | 0.735 ± 0.07
FLSWGSGVFGLL | 0.671 ± 0.056
FLSWTAYRPSST | 0.682 ± 0.0075
FLVWGLGWLCCV | 0.594 ± 0.025
FNISVGPATRRV | 0.665 ± 0.045
FNPPPLLLPPPP | 0.639 ± 0.013
FPILLASRPSSP | 0.662 ± 0.046
FPISPSQSQSLP | 0.724 ± 0.076
FPIWYPSSSFPR | 0.711 ± 0.013
FPLPHPCPPPPP | 0.694 ± 0.017
FPLSPPAPPLTP | 0.702 ± 0.013
FPPAHPVHFSPP | 0.717 ± 0.047
FPPCCSSFFGFF | 0.752 ± 0.024
FPPCSFLARPFL | 0.669 ± 0.019
FPPLLFSSPPLP | 0.683 ± 0.018
FPPLSHLPPGLY | 0.758 ± 0.075

Sequence | protein stability index
FPPPPPPLPPGS | 0.687 ± 0.073
FPPPPPSFSQPL | 0.741 ± 0.034
FPPPPPSRSRPV | 0.708 ± 0.032
FPPPRYPRRPTA | 0.682 ± 0.018
FPRRPHVESHIR | 0.7359 ± 0.0042
FPSSALPPRLSL | 0.7409 ± 0.0072
FPSSSHLPWLLI | 0.633 ± 0.014
FPTIGLSCSFPH | 0.676 ± 0.042
FQGRLILCIETR | 0.5323 ± 0.00074
FQWVLDGYRCWD | 0.694 ± 0.098
FRAPYWCSRVFG | 0.715 ± 0.095
FRGALFLLSSRV | 0.571
FRGGCDRIRYRM | 0.696 ± 0.0089
FRGGRTEWEKNV | 0.719 ± 0.058
FRGSVRLIGFAQ | 0.666 ± 0.0081
FRHPGSAGPPVA | 0.713 ± 0.011
FRLLHLPALSCP | 0.565 ± 0.013
FRLLSTINSCCV | 0.612 ± 0.036
FRLYALAPHSPG | 0.67 ± 0.027
FRPPFRSAPLSP | 0.679 ± 0.051
FRQWCTEVYIEV | 0.531 ± 0.031
FRRSLILPLPPT | 0.6814 ± 0.0037
FRRYGKEAVDKD | 0.696 ± 0.011
FRSFALFGNSFL | 0.704 ± 0.0053
FRYSSLPRPLVF | 0.5893 ± 0.0029

Sequence | protein stability index
FSGISVMCLFSG | 0.687 ± 0.12
FSHLYCSLVTTD | 0.681 ± 0.067
FSLFGVGQITFL | 0.683 ± 0.056
FSLFSSPPSLFC | 0.672 ± 0.03
FSLPLCAITGPQ | 0.702 ± 0.056
FSPALPPSHSPP | 0.676 ± 0.057
FSPAPPLLLHPS | 0.714 ± 0.043
FSPASCPILPPL | 0.672 ± 0.014
FSQNFVSTGFRL | 0.702 ± 0.028
FSRPPPFPLFSS | 0.69 ± 0.03
FSSCFLVSPSLF | 0.648 ± 0.016
FSSFVLLFFSFP | 0.541 ± 0.011
FSSPLLLFHLPV | 0.663 ± 0.04
FSSSASNSSWPY | 0.721 ± 0.016
FSTLLVSPLQAS | 0.641 ± 0.022
FSTVIDFLAYLF | 0.636 ± 0.036
FSWDRIKQCSSV | 0.7094 ± 0.0035
FTFARPVCLFFG | 0.587 ± 0.003
FTHVKEVNTGNR | 0.672 ± 0.053
FTLCPARALSLC | 0.552 ± 0.024
FTLRFGYISDLD | 0.736 ± 0.21
